Source: publication PMC9363494, “C-terminal truncation modulates α-Synuclein’s cytotoxicity and aggregation by promoting the interactions with membrane and chaperone” (Communications Biology, 2022)

Biological target: T1, C-terminally truncated α-synuclein (residues 1-99) (UniProt P37840 1-99)
T1 construct: α-synuclein with a deletion of the C-terminus, amino acids 1-99; Uniformly 15N-enriched for the NMR experiments; also called CT-α-syn; source: E. coli BL21 (DE3), purified (SP cation exchange, Superdex 75)
Experiment: NMR titration; 1H-15N HSQC of 0.3 mM 15N-enriched FL- or CT-α-syn titrated with PDI (mole ratios 10:1 to 1:1, 0-300 μM PDI); 20 mM HEPES, 100 mM NaCl, 5 mM TCEP, pH 7.0, 10% D2O, 15 °C; KD from fits of the average CSPs of residues in segment 1 and in segment 2
Settings: both partners purified

B1: protein disulfide isomerase (enzyme)
chain: not shown
notes: human protein disulfide isomerase (PDI); the human PDI gene cloned into pET-28a; The vector has a TEV protease cleavage site after the His6-tag; no cleavage step is described; also called PDI; source: E. coli BL21 (DE3), purified (HisTrap, Resource Q, Superdex 200)
  KD of segment 1: ~40 µM
  KD of segment 2: ~400 µM
